This note sets out measurements from patent US20080213284A1.

Like-named read-outs stand apart in the source and are kept apart here.

Assay [1] has as its target receptor on VERO E6 cells (not identified in the filing). As to the kind of experiment: FACS competition against S2-Fc (330 ng/mL) on VERO E6 cells; agent at 1 µg/mL.
For assay [2] the target is unchanged. Kind of assay: FACS competition against S2-Fc (330 ng/mL) on VERO E6 cells; agent at 10 µg/mL.
For assay [3] the target is unchanged.

Take Negative control (blocking agent): the Percent of Inhibition in assay [1], in assay [2] and in assay [3] was 0% throughout.

As for “recombinant RBD2 (from UniProt P59594 284-735)”, the Percent of Inhibition in assay [1], in assay [2] and in assay [3] was 100% each time.
